This is an account of results in article PMC4705684, “DNA binding fluorescent proteins for the direct visualization of large DNA molecules”.

The subject of data set [1] is FP(eGFP)-DBP (synthetic construct; expressed in E. coli BL21 (DE3)). As to the kind of experiment: EMSA. The note with it: EMSA: 1x TE (10 mM Tris, 1 mM EDTA, pH 8.0) with 50% (v/v) glycerol, 10 ul, DNA stock ~31.4 nM, protein stocks 74 nM-148 uM, 0.5x TBE 4-20% PAGE, temperature …. (Mobility shift assays separate free from complexed probe on a gel.)
Another data set has as its target T1, DBP peptide KWKWKKA (synthetic construct).
T1 chain: KWKWKKA
As to the kind of experiment: UV absorbance quenching at 260 nm; stoichiometry 3 bp per DBP; EMSA: 1x TE (10 mM Tris, 1 mM EDTA, pH 8.0) with 50% (v/v) glycerol, 10 ul, DNA stock ~31.4 nM, protein stocks 74 nM-148 uM, 0.5x TBE 4-20% PAGE, temperature not stated; spectra in 1x TE; imaging in TE pH 8.0. The note with it: label: none (EtBr post-stain in EMSA); blunt.

One may read the Kd as the constant that tells how readily two partners part at equilibrium. A lower Kd goes with higher affinity. In data set [1], “CTACTAGCACAATCGACTGTACGGACCGATCGAGTCACTAGCAGTCTAGCAA (double strand) [52-mer random dsDNA]” displayed a dissociation constant Kd of 14.7 µM.

B1: 52-mer random dsDNA (dsDNA)
DNA 1: CTACTAGCACAATCGACTGTACGGACCGATCGAGTCACTAGCAGTCTAGCAA
DNA 2: TTGCTAGACTGCTAGTGACTCGATCGGTCCGTACAGTCGATTGTGCTAGTAG
As to B1, the binding result with DBP peptide KWKWKKA was “binds”.
